Biological target: Human Myelin Basic Protein (Homo sapiens, UniProt P02686)
Assay: phage display, NGS count

Sequence of Human Myelin Basic Protein (P02686 135-304 limits assumed): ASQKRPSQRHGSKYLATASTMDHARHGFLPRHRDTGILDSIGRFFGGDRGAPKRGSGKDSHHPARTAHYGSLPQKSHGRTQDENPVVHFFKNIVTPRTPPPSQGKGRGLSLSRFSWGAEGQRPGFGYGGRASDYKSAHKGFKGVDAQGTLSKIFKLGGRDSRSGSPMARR

Count | Substance
6 | SAVLMPP (peptide)
7 | VVDMSTY (peptide)
6 | SYVTVFR (peptide)
7 | SEPGTVR (peptide)
6 | SLKTTNP (peptide)
6 | DVRIWTL (peptide)
6 | HRTHLHQ (peptide)
8 | QNSYLSN (peptide)
6 | SGPFPLV (peptide)
7 | KYRHGAE (peptide)
7 | AVRQTTM (peptide)
6 | KVHHLAR (peptide)
6 | RVIPSTT (peptide)
8 | NPTDTNK (peptide)
6 | LITHPQL (peptide)
8 | YATATPS (peptide)
6 | AGSLLSL (peptide)
10 | MDLSLKP (peptide)
6 | DSQEKSV (peptide)
6 | SKPHASH (peptide)
8 | TSRLVST (peptide)
8 | VAHQRVS (peptide)
7 | LTKSLNH (peptide)
6 | WVPDRSL (peptide)

Count | Substance
6 | KIITTKS (peptide)
9 | FSARTNT (peptide)
8 | LPPQISR (peptide)
6 | IGTRWHQ (peptide)
7 | HPDTLPQ (peptide)
9 | HPWLGNR (peptide)
8 | SPPRFIP (peptide)
6 | GEPALVT (peptide)
6 | LVPPVNH (peptide)
7 | SLRSVGA (peptide)
8 | SWFESHN (peptide)
6 | HQMRTML (peptide)
6 | AIPPRKL (peptide)
7 | SIRMTEI (peptide)
7 | AAGQRSF (peptide)
9 | SNAERWR (peptide)
6 | ALRDTRV (peptide)
6 | YPTYLSY (peptide)
6 | LELHQNV (peptide)
9 | HFYGPGP (peptide)
6 | VGTFWTR (peptide)
6 | WTYHPTT (peptide)
6 | RSRKHRP (peptide)
8 | NTSLSFK (peptide)

Count | Substance
6 | QTSIMSG (peptide)
6 | SIQTSAM (peptide)
6 | TPGRATL (peptide)
6 | WDLPQNR (peptide)
6 | QYWDILG (peptide)
7 | SGNLKKA (peptide)
7 | YLPPPLP (peptide)
6 | FDLLARK (peptide)
7 | HMAGVNQ (peptide)
7 | HTGLRSL (peptide)
6 | SNAHTLP (peptide)
6 | HFTFFPI (peptide)
7 | GPITHAI (peptide)
6 | SVGLPTK (peptide)
6 | NGPNSLQ (peptide)
7 | WSLPLLS (peptide)
7 | KGQPLFR (peptide)
7 | WSPRWPS (peptide)
6 | HSSATMS (peptide)
7 | NSSPHQI (peptide)
6 | SRHLPPL (peptide)
6 | GVAEVGL (peptide)
10 | TQMTMDS (peptide)

Continued, substance first:

Substance | Count
TLLTALT (peptide) | 7
LMLPQLE (peptide) | 6
HQPLFPR (peptide) | 6
MTNHGNA (peptide) | 7
QGTLFDT (peptide) | 7
TPQVMLK (peptide) | 8
NTPKVLA (peptide) | 10
RGHPSQL (peptide) | 6
QPIDSTS (peptide) | 7
VRGTPNH (peptide) | 6
MQRLGAD (peptide) | 6
MPSLKHQ (peptide) | 8
NGVSSSL (peptide) | 6
ETHYKIA (peptide) | 6
SLWQTLR (peptide) | 6
INFPFAV (peptide) | 6
AQFLTIY (peptide) | 6
YVNRVKQ (peptide) | 6
MPLLELP (peptide) | 7
ALGTRPL (peptide) | 7
QKALPQT (peptide) | 6
VIRTAAM (peptide) | 6
HPTGTPT (peptide) | 7
NFAQHMQ (peptide) | 9

Substance | Count
ESKSPRE (peptide) | 6
ALYNQMT (peptide) | 6
ELKSLRF (peptide) | 6
DSYLLSA (peptide) | 8
ASNTSKG (peptide) | 7
HFLRPSD (peptide) | 7
THKHMMT (peptide) | 6
SKLAGFP (peptide) | 6
ARVPNPL (peptide) | 6
TGNLRLY (peptide) | 9
TGPSSAV (peptide) | 6
NLLQGVM (peptide) | 7
IPIPYRT (peptide) | 6
SLDHLRL (peptide) | 6
GSPYGWG (peptide) | 6
SSGMLSK (peptide) | 7
SSFYVAY (peptide) | 6
WDLRHSK (peptide) | 6
TPLYLSS (peptide) | 7
NLKLWTR (peptide) | 7
FLNQAPT (peptide) | 7
RTTDWWT (peptide) | 6
HAHWARL (peptide) | 6
QGAYVRP (peptide) | 6

Substance | Count
ANLSRSV (peptide) | 9
HLLKTHS (peptide) | 7
SLWTHRT (peptide) | 6
FQLSYET (peptide) | 6
SVEYGQL (peptide) | 9
SYTLSRS (peptide) | 7
HYSPNVM (peptide) | 9
YPYVPIY (peptide) | 6
KNSIAPR (peptide) | 8
VLSPYHN (peptide) | 6
TPVRLNT (peptide) | 6
GPRVTPH (peptide) | 6
TTTQGHP (peptide) | 6
AQLGAFR (peptide) | 6
FKLPWAS (peptide) | 7
SEGLTLL (peptide) | 6
FVLPNKN (peptide) | 8
TPVLWLP (peptide) | 6
TRIPILL (peptide) | 6
ESPYPHS (peptide) | 7
GQWWKML (peptide) | 6
NLTYLRF (peptide) | 6
VPTLRIP (peptide) | 8

Biological target: Human Myelin PLP (human) (UniProt P60201)
Assay: phage display, NGS count

Sequence of Human Myelin PLP (human) (P60201 2-277 limits assumed): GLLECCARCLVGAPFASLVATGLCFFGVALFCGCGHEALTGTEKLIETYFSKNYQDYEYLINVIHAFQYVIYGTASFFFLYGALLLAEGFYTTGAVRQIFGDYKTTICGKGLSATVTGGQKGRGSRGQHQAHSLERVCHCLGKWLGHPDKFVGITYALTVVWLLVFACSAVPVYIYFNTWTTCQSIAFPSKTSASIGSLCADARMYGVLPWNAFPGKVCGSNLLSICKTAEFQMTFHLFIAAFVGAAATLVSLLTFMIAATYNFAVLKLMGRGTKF

Count | Substance
28 | QLPRNNL (peptide)
31 | WSPHRSF (peptide)
27 | TGISSTP (peptide)
31 | SWDVLEL (peptide)
28 | TQPRYPS (peptide)
34 | WNTADRL (peptide)
31 | EPSSFTF (peptide)
34 | VSSQEQA (peptide)
28 | VFPERRV (peptide)
28 | GIPSSKN (peptide)
29 | GPAAVII (peptide)
29 | HKAPLGT (peptide)
29 | FSTPTNV (peptide)
28 | VGYRSAS (peptide)
29 | TKITPHR (peptide)
29 | YSSRLTA (peptide)
40 | TDVEMVP (peptide)
27 | HLHTRPT (peptide)
27 | LPHRLNP (peptide)
26 | SVVYQNS (peptide)
26 | SLPSLLP (peptide)
26 | GHLQSLF (peptide)
29 | SVMWMTP (peptide)
28 | SLNRGGA (peptide)
26 | ASLTLAL (peptide)
27 | VSASWMP (peptide)

The remaining lines, values behind:

Substance | Count
GLWGPSL (peptide) | 26
AVVAMNK (peptide) | 28
SVEKYSK (peptide) | 33
DRHEGHR (peptide) | 26
MKIMPMD (peptide) | 26
VTGPGTP (peptide) | 26
TLWAQKT (peptide) | 28
YSQAISA (peptide) | 27
FSLDRDG (peptide) | 29
GSAWKKH (peptide) | 44
TFPERLR (peptide) | 31
VRTSMNH (peptide) | 28
SALISTR (peptide) | 32
YSDTYKH (peptide) | 30
EVLYPNN (peptide) | 27
FRIDKSM (peptide) | 26
TTTIADM (peptide) | 26

Substance | Count
GNVFQTS (peptide) | 31
WSPHGYK (peptide) | 27
SAQSRSF (peptide) | 26
VTPNKAR (peptide) | 26
AQASSAR (peptide) | 27
DGSRDLV (peptide) | 30
SGLHYAL (peptide) | 32
NDASTVS (peptide) | 28
ARFVPLT (peptide) | 30
MPHAPVQ (peptide) | 37
LMQKPSI (peptide) | 29
GKSYSQI (peptide) | 31
TRASYPQ (peptide) | 32
IIPPTSV (peptide) | 31
GWSTAIR (peptide) | 29
RLQPEPT (peptide) | 33
LPVKNLL (peptide) | 26

— US20240207421A1, “NERVE TARGETING PEPTIDES AND METHODS OF USE” (ALUME BIOSCIENCES, INC., priority 2020, published 2024)
